In patent publication US20210122826A1 (MIT, published 2021):

T1: Human Clec7A (human, UniProt Q9BXN2 1-247)
T1 construct: also called hClec7A
T1 sequence: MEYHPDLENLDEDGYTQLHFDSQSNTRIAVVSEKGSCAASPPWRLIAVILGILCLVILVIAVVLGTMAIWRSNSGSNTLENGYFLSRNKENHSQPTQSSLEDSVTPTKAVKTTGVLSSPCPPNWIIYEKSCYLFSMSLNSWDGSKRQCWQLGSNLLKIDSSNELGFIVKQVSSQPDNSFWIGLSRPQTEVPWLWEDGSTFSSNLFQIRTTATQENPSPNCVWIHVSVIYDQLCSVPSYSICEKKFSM

T2: Human KLRF1 (human, UniProt Q9NZS2 1-231)
T2 construct: also called hKLRF1
T2 sequence: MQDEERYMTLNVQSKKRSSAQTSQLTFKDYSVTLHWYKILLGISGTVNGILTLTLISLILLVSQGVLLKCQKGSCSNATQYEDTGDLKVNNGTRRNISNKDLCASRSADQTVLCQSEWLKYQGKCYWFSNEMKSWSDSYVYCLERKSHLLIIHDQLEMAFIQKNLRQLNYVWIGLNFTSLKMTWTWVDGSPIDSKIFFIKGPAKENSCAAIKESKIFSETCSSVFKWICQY

T3: Human KLRG1 (human, UniProt Q96E93 1-195)
T3 construct: also called hKLRG1
T3 sequence: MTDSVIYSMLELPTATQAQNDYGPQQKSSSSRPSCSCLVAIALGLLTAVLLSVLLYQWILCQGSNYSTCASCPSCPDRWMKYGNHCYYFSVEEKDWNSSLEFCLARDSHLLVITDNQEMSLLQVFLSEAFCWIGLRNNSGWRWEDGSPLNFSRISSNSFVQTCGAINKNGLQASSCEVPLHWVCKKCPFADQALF

T4: cynomolgus CD161 (cynomolgus)
T4 construct: UniProt A0A2K5WYI1; also called cynoCD161
T4 chain: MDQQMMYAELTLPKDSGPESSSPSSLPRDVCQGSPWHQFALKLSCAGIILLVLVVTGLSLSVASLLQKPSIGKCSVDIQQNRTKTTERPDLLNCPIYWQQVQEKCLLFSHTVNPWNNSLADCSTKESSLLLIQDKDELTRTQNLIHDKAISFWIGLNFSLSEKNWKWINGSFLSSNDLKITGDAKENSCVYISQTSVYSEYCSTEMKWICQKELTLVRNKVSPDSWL

T5: Human KLRF2 (human, UniProt D3W0D1 1-207)
T5 construct: also called hKLRF2
T5 sequence: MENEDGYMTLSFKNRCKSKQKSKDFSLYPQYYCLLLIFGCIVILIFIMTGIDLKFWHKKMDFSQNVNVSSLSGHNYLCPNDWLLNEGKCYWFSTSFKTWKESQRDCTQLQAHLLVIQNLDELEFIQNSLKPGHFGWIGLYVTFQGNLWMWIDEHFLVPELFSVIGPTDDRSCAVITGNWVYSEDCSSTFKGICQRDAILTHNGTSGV

T6: Human Clec12B (human, UniProt Q2HXU8 1-276)
T6 construct: also called hClec12B
T6 sequence: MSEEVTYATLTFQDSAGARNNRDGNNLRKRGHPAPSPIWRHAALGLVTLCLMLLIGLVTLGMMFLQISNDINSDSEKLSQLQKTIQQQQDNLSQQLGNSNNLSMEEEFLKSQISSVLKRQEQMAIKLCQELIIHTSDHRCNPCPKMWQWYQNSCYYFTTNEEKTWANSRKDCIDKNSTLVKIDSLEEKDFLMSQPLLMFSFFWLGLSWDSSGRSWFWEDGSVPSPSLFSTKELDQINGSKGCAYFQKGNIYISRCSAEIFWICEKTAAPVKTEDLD

T7: Human Clec5A (human, UniProt Q9NY25 1-188)
T7 construct: also called hClec5A
T7 sequence: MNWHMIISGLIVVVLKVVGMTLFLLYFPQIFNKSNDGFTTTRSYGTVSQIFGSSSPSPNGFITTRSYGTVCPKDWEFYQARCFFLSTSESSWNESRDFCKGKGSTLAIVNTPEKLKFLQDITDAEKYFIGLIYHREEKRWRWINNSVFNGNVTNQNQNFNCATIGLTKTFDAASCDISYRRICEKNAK

T8: Human Clec10A (human, UniProt Q8IUN9 1-316)
T8 construct: also called hClec10A
T8 sequence: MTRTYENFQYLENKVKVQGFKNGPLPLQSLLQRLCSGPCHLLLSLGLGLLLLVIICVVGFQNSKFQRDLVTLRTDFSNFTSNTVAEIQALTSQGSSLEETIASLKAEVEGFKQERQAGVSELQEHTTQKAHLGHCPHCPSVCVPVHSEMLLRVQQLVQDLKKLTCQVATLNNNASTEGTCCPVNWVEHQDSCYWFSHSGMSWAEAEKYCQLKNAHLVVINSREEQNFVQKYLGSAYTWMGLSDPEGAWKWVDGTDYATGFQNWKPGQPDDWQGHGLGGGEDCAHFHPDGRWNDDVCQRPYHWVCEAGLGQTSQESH

T9: Human CD94 (human, UniProt Q13241 1-179)
T9 construct: also called hCD94
T9 sequence: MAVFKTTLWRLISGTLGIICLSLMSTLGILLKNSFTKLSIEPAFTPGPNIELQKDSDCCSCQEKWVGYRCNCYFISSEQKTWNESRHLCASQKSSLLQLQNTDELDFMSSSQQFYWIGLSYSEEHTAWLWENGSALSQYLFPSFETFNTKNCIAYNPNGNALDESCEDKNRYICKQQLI


Legend:
Assay in all cases: flow, Jurkat, 100 nM Ab
Human Clec7A = target: T1, Human Clec7A
Human Clec9A = target: T10, Human Clec9A (human, UniProt Q6UXN8 1-241)
T10 construct: also called hClec9A
T10 sequence (Q6UXN8 whole entry): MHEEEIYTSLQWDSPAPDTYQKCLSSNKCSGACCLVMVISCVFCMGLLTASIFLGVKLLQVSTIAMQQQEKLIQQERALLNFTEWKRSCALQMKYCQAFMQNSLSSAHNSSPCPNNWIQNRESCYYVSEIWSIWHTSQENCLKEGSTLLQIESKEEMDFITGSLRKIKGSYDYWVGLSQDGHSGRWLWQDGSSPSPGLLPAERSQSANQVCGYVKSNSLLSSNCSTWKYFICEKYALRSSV

Human KLRF1 = target: T2, Human KLRF1
Human OLR1 = target: T11, Human OLR1 (human, UniProt P78380 1-273)
T11 construct: also called hOLR1

Human KLRG1 = target: T3, Human KLRG1
cynomolgus CD161 = target: T4, cynomolgus CD161
Human KLRF2 = target: T5, Human KLRF2
Human Clec12B = target: T6, Human Clec12B
Human Clec5A = target: T7, Human Clec5A
Human Clec10A = target: T8, Human Clec10A
Human CD94 = target: T9, Human CD94

| Binder | MFI normalized to WT (Human Clec7A) | MFI normalized to WT (Human Clec9A) | MFI normalized to WT (Human KLRF1) | MFI normalized to WT (Human OLR1) | MFI normalized to WT (Human KLRG1) | MFI normalized to WT (cynomolgus CD161) | MFI normalized to WT (Human KLRF2) | MFI normalized to WT (Human Clec12B) | MFI normalized to WT (Human Clec5A) | MFI normalized to WT (Human Clec10A) | MFI normalized to WT (Human CD94) |
| --- | --- | --- | --- | --- | --- | --- | --- | --- | --- | --- | --- |
| KW1.2.1 (antibody, V domains shown) VH: EVQLVESGGGLVQPGGSLRLSCAASGSTFSSYAMSWVRQAPGKGLEWVSTISGSGGSTYYADSVKGRFTISRDNSRNTLYLQMNSLRAEDTAVYYCARGGLIPSGFDYWGQGTLVTVSS VL: DIQMTQSPSSPSASVGDRVTITCRASQSISSYLNWYQQKPGKAPKLLIYAASSLLSGVPSRFSGSGSGTDFTLTISSLQPEDFATYYCQQTYSTPLTFGQGTKVEIK | 1.25 | 1.24 | 1.14 | 1.28 | 1.24 | 103 | 1.05 | 1.11 | 1.13 | 0.94 | 1.13 |
| KM12.2.3 (antibody, human IgG1, V domains shown) VH: EVQLVESGGGLVQPGGSLRLSCAASGFTFSSYAMSWIRQAPGKGLEWVSAISGSGGSIYYADSVKGRFTISRDNSKNTLYLQMNSLRAEDTAVYYCARGYSDSYFYGPYYTFDYWGQGTLVTVSS VL: DIQMTQSPSSLSASVGDRVTITCRASQGISSYLNWYQQKPGKAPKLLIYAASSLQSGVSSRFSGSGSGTDFTLTISSLQPEDFATYYCQQSYNTPLTFGQGTKVEIK | 1.11 | 1.42 | 1.18 | 1.33 | 1.42 | 11.9 | 1.37 | 1.33 | 1.41 | 1.44 | 1.36 |
| KW7.2.2 (antibody, V domains shown) VH: not shown VL: DIQMTQSPSSLSASVGDRVTITCRASQSISSYLNWYQQKPGKAPRFLIYAASSLQSGVPSRFSGSGSGTDFTLTISSLQPEDFATYYCQQTYSTPLTFGQGTKVEIK | 1.46 | 1.42 | 1.18 | 1.42 | 1.3 | 108 | 1.12 | 1.37 | 1.24 | 0.9 | 1.29 |
| KW9.3.3 (antibody, V domains shown) VH: EVQLVESGGGLVQPGGSLRLSCAASGFTFSSYAMSWVRQAPGKGLEWVSAISGSGGRTYYADSVKGRFTISRDNSKNTLYLQMNSLRAEDTAMYYCARGPGYMYLYGDSFFEYWGQGTLVTVSS VL: DIQMAQSPSSLSASVGDRVTITCRASQGISSYLNWYQQKPGKAPKLLIYAASSLQSGVPSRFSGSGYGTDFTLTISSLQPEDFATYYCQQSYSTPLTFGQGTKVEIK | 1.03 | 0.94 | 0.8 | 0.9 | 0.93 | 0.89 | 0.9 | 0.94 | 0.93 | 0.86 | 0.84 |
| KW17.3.4 (antibody, V domains shown) VH: not shown VL: QSVLTQPPSVSGAPGQRVTISCTGSSSNIGAGYDVHWYQQLPGTAPKLLIYGNSNRPSGVPDRFSGSQSGTSASLAITGLQAEDEADYYCQSYNSGHTVFGGGTQLTVL | 1.16 | 1.13 | 0.91 | 1.03 | 1.08 | 1.03 | 1.03 | 1.09 | 1.12 | 0.98 | 0.97 |

The next lines start with the values.

| MFI normalized to WT (Human Clec7A) | MFI normalized to WT (Human Clec9A) | MFI normalized to WT (Human KLRF1) | MFI normalized to WT (Human OLR1) | MFI normalized to WT (Human KLRG1) | MFI normalized to WT (cynomolgus CD161) | MFI normalized to WT (Human KLRF2) | MFI normalized to WT (Human Clec12B) | MFI normalized to WT (Human Clec5A) | MFI normalized to WT (Human Clec10A) | MFI normalized to WT (Human CD94) | Binder |
| --- | --- | --- | --- | --- | --- | --- | --- | --- | --- | --- | --- |
| 1.18 | 1.01 | 1.19 | 1.15 | 1.06 | – | 1.03 | 1.05 | 1.08 | 0.89 | 1.01 | KW7.3.7 (antibody, V domains shown) VH: EVQLVESGGGLVQPGGSLRLSCAASGFTFSSYAMSWVRQAPGKGLEWVSATSGSGGSTYYADSAKGRFTISRDNSKNTLYLQMNSLRAEDTAVYYCARGGYLPDAFDYWGRGTLVTVSS VL: DIQMTQSPSSLSASVGDRVTITCWASQSISSYLNWYQQEPGKAPKLLIYAASSLQSGVPSRFSGSGSGTDFTLTISSLQPEDFATYYCQQTYSTPLTFGQGTKVEIK |
| 1.38 | 1.11 | 1.02 | 1.24 | 1.25 | 117 | 1.08 | 1.1 | 1.19 | 0.9 | 1.07 | KW1.3.12 (antibody, human IgG1, V domains shown) VH: EVQLVESGGGLVQPGGSLRLSCAASGFTFSSYAMSWVRQAPGKGLEWVSTISGSGGSTYYADSVKGRFTISRDNSRNTLYLQMNSLRAEDTAVYYCARGGLIPSGFDYWGQGTLVTVSS VL: DIQMTQSPSSLSASVGDRVTITCRASQSISSYLNWYQQKPGKAPKLLIYAASSLLSGVPSRFSGSGSGTDFTLTISSLQPEDFATYYCQQTYSAPLTFGQGTKVEIK |
| 1.36 | 1.17 | 1.14 | 1.3 | 1.25 | 116 | 1.13 | 1.12 | 1.31 | 1.01 | 1.2 | KM12.4.7 (antibody, V domains shown) VH: EVQLVESGGGLVQPGGSLRLPCAASGFTFSSYAMSWIRQAPGKGLEWVSAISGSGGSIYYADSVKGRFTISRDNSKNTLYLQMDSLRAEDTAVYYCARGYSDSYFYGPYYTFDYWGQGTLVTVSS VL: not shown |
